# Experimental data: patent US9988424 (DUKE UNIVERSITY, dated 2018)
# T1: gp70 C.1086 V1/V2 (HIV-1 V1V2 on murine leukemia virus gp70)
# T1 construct: also called C.gp70 1086C V1V2; C.1086gp70V1V2
# T1 chain: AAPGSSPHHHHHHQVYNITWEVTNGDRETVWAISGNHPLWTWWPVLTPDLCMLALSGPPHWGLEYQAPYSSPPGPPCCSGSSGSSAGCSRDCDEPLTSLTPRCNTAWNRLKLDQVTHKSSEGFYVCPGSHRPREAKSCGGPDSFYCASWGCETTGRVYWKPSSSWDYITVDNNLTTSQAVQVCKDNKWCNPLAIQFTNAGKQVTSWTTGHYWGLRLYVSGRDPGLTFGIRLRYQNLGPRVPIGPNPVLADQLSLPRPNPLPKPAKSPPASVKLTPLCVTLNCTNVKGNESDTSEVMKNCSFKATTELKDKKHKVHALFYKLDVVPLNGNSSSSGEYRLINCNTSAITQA
# T2: A.9004SS V1/V2 tags
# T2 V1V2 tags construct: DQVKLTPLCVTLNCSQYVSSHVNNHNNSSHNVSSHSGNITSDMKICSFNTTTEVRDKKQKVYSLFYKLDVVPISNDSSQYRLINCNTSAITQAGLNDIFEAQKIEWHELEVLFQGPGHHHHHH
# How the values were obtained:
# [1] = molecular target: T3, AE.A244 V1/V2 tags, natively deglycosylated (HIV-1); assay: ELISA
# T3 construct: also called AE.A244V1V2 tags Degly
# gp70 C.1086 V1/V2 = molecular target: T1, gp70 C.1086 V1/V2; assay: ELISA, OD405 at 10 ug/ml
# B.HXB/BAL gp140CFI = molecular target: T4, B.HXB/BAL gp140CFI (HIV-1, UniProt P04578 33-680); assay: ELISA, OD405 at 10 ug/ml
# T4 construct: also called B.HxB/Ba gp140 CFI
# A.9004SS V1/V2 tags = molecular target: T2, A.9004SS V1/V2 tags; assay: ELISA, OD405 at 10 ug/ml
Binder,fold decrease of binding against the glycosylated protein [1],binding result (gp70 C.1086 V1/V2),binding result (B.HXB/BAL gp140CFI),binding result (A.9004SS V1/V2 tags)
"697D (antibody, V domains shown, also called mAb 697D; V2 conformational mAb 697D) VH: QVQLVQSGAEVKKPGSSVKVSCKASGGNFNTYTISWVRQAPGQGLEWMGRIIPIFGIVNPAQKFPGRVTINVDKSTNTAYMELSSLRSEDTAVYYCATSGVGLHFGYFDYWGQGTQVTVSS VL: QSVLTQPPSVSGAPGQRVTISCTGSSSNIGAHYDVHWYQQLPGTAPKLLIYGNSNRPSGVPDRFSGSKSGTSASLAITGLQAEDEADYYCQSYDSSLSGYVFGTGTKVTVL",6 fold,–,–,–
"PG16 (antibody, V domains shown, also called mAb PG16; bnAb PG16) VH: QEQLVESGGGVVQPGGSLRLSCLASGFTFHKYGMHWVRQAPGKGLEWVALISDDGMRKYHSDSMWGRVTISRDNSKNTLYLQFSSLKVEDTAMFFCAREAGGPIWHDDVKYYDFNDGYYNYHYMDVWGKGTTVTVSS VL: QSALTQPASVSGSPGQTITISCNGTSSDVGGFDSVSWYQQSPGKAPKVMVFDVSHRPSGISNRFSGSKSGNTASLTISGLHIEDEGDYFCSSLTDRSHRIFGGGTKVTVL",–,no binding (tested: 10 ug/ml),no binding (tested: 10 ug/ml),no binding (tested: 10 ug/ml)
